The target in assay [1] is T1, recombinant human EphB4-Fc fusion protein (human, UniProt P54760 16-539).
T1 construct: extracellular domain; also called hEphB4; hu EphB4-Fc
T1 sequence (looked up): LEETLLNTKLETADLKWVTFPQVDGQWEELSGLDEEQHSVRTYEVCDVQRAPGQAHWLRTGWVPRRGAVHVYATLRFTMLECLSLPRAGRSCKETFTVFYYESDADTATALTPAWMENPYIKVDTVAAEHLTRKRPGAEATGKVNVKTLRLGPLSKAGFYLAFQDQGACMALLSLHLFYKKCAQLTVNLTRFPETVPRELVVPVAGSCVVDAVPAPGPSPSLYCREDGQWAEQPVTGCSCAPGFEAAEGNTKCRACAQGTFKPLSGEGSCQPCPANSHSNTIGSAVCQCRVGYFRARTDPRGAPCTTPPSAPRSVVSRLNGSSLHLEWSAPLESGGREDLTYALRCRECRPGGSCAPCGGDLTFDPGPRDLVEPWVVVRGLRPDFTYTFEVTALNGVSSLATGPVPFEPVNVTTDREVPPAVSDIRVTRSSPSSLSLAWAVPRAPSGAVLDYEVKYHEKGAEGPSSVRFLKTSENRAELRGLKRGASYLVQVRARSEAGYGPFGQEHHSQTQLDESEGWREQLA
Description: ELISA.

Assay [2] concerns the target T2, myc-tagged human EphB4 on transfected CHO cells (human, UniProt P54760 16-987).
T2 construct: whole, on cells; also called CHO-EphB4; CHO-hEphB4; not shown: myc tag
T2 sequence (looked up): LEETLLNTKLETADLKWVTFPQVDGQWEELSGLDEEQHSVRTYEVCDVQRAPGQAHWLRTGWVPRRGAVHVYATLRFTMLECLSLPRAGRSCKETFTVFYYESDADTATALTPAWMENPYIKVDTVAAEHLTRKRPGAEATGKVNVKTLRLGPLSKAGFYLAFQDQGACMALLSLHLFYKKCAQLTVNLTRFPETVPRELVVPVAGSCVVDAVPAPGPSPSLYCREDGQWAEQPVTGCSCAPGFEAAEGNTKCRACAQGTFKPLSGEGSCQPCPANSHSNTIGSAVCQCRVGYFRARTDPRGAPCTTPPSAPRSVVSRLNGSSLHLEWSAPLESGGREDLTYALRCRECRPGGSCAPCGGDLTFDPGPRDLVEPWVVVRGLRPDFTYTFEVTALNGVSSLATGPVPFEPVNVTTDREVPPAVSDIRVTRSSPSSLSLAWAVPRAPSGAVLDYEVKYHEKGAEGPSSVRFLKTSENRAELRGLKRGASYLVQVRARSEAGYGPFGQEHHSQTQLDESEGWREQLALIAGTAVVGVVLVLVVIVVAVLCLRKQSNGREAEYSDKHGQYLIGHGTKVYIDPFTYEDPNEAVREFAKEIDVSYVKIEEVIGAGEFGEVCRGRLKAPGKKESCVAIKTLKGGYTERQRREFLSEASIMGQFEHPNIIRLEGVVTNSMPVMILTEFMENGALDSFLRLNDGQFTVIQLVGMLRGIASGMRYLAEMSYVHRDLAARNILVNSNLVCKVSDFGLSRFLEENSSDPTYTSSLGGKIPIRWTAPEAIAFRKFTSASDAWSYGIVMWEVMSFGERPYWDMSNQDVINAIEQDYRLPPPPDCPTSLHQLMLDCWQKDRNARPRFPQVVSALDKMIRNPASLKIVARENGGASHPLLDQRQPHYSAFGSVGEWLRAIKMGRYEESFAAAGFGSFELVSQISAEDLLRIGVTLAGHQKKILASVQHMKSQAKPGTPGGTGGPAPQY
Description: FACS, Fab against EphrinB2-Fc on hEphB4-transfected cells. As for the experimental part: (§1) IC₅₀ values were determined using recombinant antigen (murine and human EphB4) in an ELISA and on transfected cells in a FACS analysis (human EphB4 receptor).
(§2) Binding of (a fixed concentration of) the ligand EphrinB2-Fc to immobilized EphB4 receptor on an ELISA plate or on transfected cells is titrated with anti-EphB4 Fab. The IC₅₀ is determined as the amount of Fab at which the binding of EphrinB2 is inhibited by 50%.

Assay [3] addresses T3, recombinant murine EphB4-Fc fusion protein (mouse, UniProt P54761 16-539).
T3 construct: extracellular domain; also called mEphB4; mu EphB4; not shown: Fc part, not described
T3 sequence (looked up): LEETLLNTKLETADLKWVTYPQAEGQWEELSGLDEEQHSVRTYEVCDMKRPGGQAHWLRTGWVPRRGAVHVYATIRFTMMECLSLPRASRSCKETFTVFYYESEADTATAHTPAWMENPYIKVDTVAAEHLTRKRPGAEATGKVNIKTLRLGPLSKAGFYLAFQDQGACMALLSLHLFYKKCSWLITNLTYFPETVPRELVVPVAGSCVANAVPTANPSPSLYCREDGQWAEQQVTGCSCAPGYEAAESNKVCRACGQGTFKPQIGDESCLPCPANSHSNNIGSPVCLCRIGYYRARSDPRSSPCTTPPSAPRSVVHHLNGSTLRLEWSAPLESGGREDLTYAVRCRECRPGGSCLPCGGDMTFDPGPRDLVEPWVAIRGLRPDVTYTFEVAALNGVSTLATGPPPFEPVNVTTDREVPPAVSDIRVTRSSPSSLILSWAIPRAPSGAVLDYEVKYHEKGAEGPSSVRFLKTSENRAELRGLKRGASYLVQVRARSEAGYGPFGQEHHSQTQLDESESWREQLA
Description: competition ELISA, Fab against EphrinB2-Fc on immobilized murine EphB4. Here is the method:
as §1, §2

Assay [4] addresses T1, recombinant human EphB4-Fc fusion …. Put plainly: Biacore, EphB4-Fc on chip. As for the experimental part: (§3) The affinity of the antibody fragments was determined using BIACORE™ analysis and cell ELISA. The Biacore chip was coated with recombinant human or murine EphB4-Fc fusion protein.
Assay [5] addresses T3, recombinant murine EphB4-Fc fusion …. Put plainly: Biacore, EphB4-Fc on chip. Here is the method:
as §3

For assay [6], the target named is T2, myc-tagged human EphB4 on transfected …. Description: FACS competition on CHO-hEphB4 cells, competitor biotinylated mEphrinB2 250 ng/mL. Here is the method: CHO-hEphB4 cells were trypsinized, washed and resuspended in FACS buffer (PBS/1% BSA) containing anti-EphB4 antibody at different concentrations and incubated at 4° C. for 30 min. Cells were washed in FACS buffer and resuspended in FACS buffer containing biotinylated mEphrinB2 at 250 ng/mL and incubated at 4° C. for 1 hr. cells were washed in FACS buffer and resuspended in FACS buffer containing Streptavidin-PE and incubated at 4° C. for 30 min. After a final wash step, cell staining was analyzed in a Becton Dickinson FACS.

B1: MOR03641 Fab (Fab, V domains shown)
VH: QVQLVQSGAEVKKPGSSVKVSCKASGGTFSTYAISWVRQAPGQGLEWMGRIIPIFGTANYAQKFQGRVTITADESTSTAYMELSSLRSEDTAVYYCARSSYTILTTYYNYNAMDNWGQGTLVTVSS
VL: DIQMTQSPSSLSASVGDRVTITCRASQNINNFLNWYQQKPGKAPKLLIYGSSILQSGVPSRFSGSGSGTDFTLTISSLQPEDFAVYYCHQVSDTSDTFGQGTKVEIKR
notes: Monomeric HuCAL Fab (VH1A, kappa1), purified, MH-tagged; also called 3541 [sic]
B1: the “ELISA signal above background” value in assay [1] came out at 10 fold. The IC50 is 4.4 µg/mL in assay [2] and 24 µg/mL in assay [3]. In addition, the Kd in assay [4] amounted to 35 nM; in assay [5] it was 151 nM. Moreover, the “IC50 (read off the curve)” value in assay [6] was roughly 1 µg/mL.

B2: MOR03639 Fab (Fab, V domains shown)
VH: QVQLVESGGGLVQPGGSLRLSCAASGFTFSNYYLHWVRQAPGKGLEWVSGISYSGSSTYYADSVKGRFTISRDNSKNTLYLQMNSLRAEDTAVYYCARFYQRRQIPHGYDVWGQGTLVTVSS
VL: DIELTQPPSVSVAPGQTARISCSGDNIGDYYVHWYQQKPGQAPVLVIYRDSNRPSGIPERFSGSNSGNTATLTISGTQAEDEADYYCGSYDMPFGGTVFGGGTKLTVLG
notes: Monomeric HuCAL Fab (VH3, lambda3), purified, MH-tagged
For B2, in assay [1], the “ELISA signal above background” value stood at 10 fold. Further, the IC50 stood at 2.8 µg/mL in assay [2] and 22 µg/mL in assay [3]. Further, the Kd in assay [4] is 13 nM; in assay [5], 43 nM. Moreover, the “IC50 (read off the curve)” value in assay [6] is roughly 2 µg/mL.

B3: MOR03640 Fab (Fab, V domains shown)
VH: QVQLVESGGGLVQPGGSLRLSCAASGFTFNNSWMSWVRQAPGKGLEWVSNITSSSSMTHYADSVKGRFTISRDNSKNTLYLQMNSLRAEDTAVYYCARKGMSFYNNKYAKSMFDLWGQGTLVTVSS
VL: DIELTQPPSVSVAPGQTARISCSGDNLGKKYVHWYQQKPGQAPVLVIYYDSKRPSGIPERFSGSNSGNTATLTISGTQAEDEADYYCSAWTTTMMHIVFGGGTKLTVLG
notes: Monomeric HuCAL Fab, purified, MH-tagged
In the case of B3, the “ELISA signal above background” value in assay [1] was 10 fold. Besides, the half-maximal inhibitory concentration (IC50) came to 2.1 µg/mL in assay [2] and 117 µg/mL in assay [3]. Besides, the dissociation constant Kd in assay [4] was 1.8 nM; in assay [5], 4 nM. The “IC50 (read off the curve)” value in assay [6] is roughly 0.4 µg/mL.

Source of the values: US20090137002A1 (published 2009).
